Assay results: the Immune Epitope Database (IEDB)

Columns and labels:
HLA-B*57:01 [1] = assay: IEDB peptide-MHC binding, purified MHC/competitive/radioactivity; filed as Kd, often an IC50 or EC50 that approximates it; ≥ and ≤ were set here for values at or beyond the usual limits of such assays
HLA-A*02:01 [2] = assay: IEDB peptide-MHC binding, purified MHC/competitive/fluorescence; filed as Kd, often an IC50 or EC50 that approximates it; ≥ and ≤ were set here for values at or beyond the usual limits of such assays; conditions: source organism: Orthohantavirus andesense
HLA-B*39:01 = assay: as above; conditions: source organism: Orthohantavirus andesense
HLA-B*27:03 = assay: as above; conditions: source organism: Orthohantavirus andesense
HLA-B*51:01 = assay: as above; conditions: source organism: Orthohantavirus andesense
HLA-B*46:01 = assay: as above; conditions: source organism: Orthohantavirus andesense
HLA-B*57:01 [3] = assay: as above; conditions: source organism: Orthohantavirus andesense
HLA-A*03:01 = assay: IEDB peptide-MHC binding, purified MHC/direct/fluorescence; filed as Kd, often an IC50 or EC50 that approximates it; ≥ and ≤ were set here for values at or beyond the usual limits of such assays
HLA-A*26:01 [4] = assay: as above; conditions: source organism: Orthohantavirus andesense
HLA-A*02:03 [5] = assay: as above
HLA-A*02:12 = assay: as above
HLA-A*24:03 [6] = assay: as above; conditions: source organism: Orthohantavirus andesense
HLA-A*23:01 = assay: as above; conditions: source organism: Orthohantavirus andesense
HLA-A*02:19 = assay: as above
HLA-A*02:11 = assay: as above
HLA-A*68:02 [7] = assay: as above; conditions: source organism: Orthohantavirus andesense
HLA-A*02:01 [8] = assay: IEDB peptide-MHC binding, purified MHC/competitive/radioactivity; filed as Kd, often an IC50 or EC50 that approximates it; ≥ and ≤ were set here for values at or beyond the usual limits of such assays
HLA-A*02:17 = assay: as above
HLA-A*32:01 = assay: as above; conditions: source organism: Dengue virus 1 Brazil/97-11/1997
HLA-A*01:01 = assay: IEDB peptide-MHC binding, purified MHC/competitive/fluorescence; filed as Kd, often an IC50 or EC50 that approximates it; ≥ and ≤ were set here for values at or beyond the usual limits of such assays; conditions: source organism: Influenza A virus (A/X-31(H3N2))
HLA-A*02:06 = assay: IEDB peptide-MHC binding, purified MHC/competitive/radioactivity; filed as Kd, often an IC50 or EC50 that approximates it; ≥ and ≤ were set here for values at or beyond the usual limits of such assays
HLA-A*02:03 [9] = assay: as above
HLA-B*18:01 = assay: IEDB peptide-MHC binding, purified MHC/competitive/fluorescence; filed as Kd, often an IC50 or EC50 that approximates it; ≥ and ≤ were set here for values at or beyond the usual limits of such assays; conditions: source organism: Orthohantavirus andesense
HLA-A*26:01 [10] = assay: as above; conditions: source organism: Orthohantavirus andesense
HLA-A*24:03 [11] = assay: as above; conditions: source organism: Orthohantavirus andesense
HLA-A*69:01 = assay: as above; conditions: source organism: Orthohantavirus andesense
HLA-A*02:16 = assay: IEDB peptide-MHC binding, purified MHC/direct/fluorescence; filed as Kd, often an IC50 or EC50 that approximates it; ≥ and ≤ were set here for values at or beyond the usual limits of such assays; conditions: source organism: Maporal virus
HLA-A*29:02 = assay: as above; conditions: source organism: Maporal virus
HLA-A*68:02 [12] = assay: IEDB peptide-MHC binding, purified MHC/competitive/radioactivity; filed as Kd, often an IC50 or EC50 that approximates it; ≥ and ≤ were set here for values at or beyond the usual limits of such assays; conditions: source organism: Dengue virus 1 Brazil/97-11/1997
HLA-A*68:02 [13] = assay: IEDB peptide-MHC binding, purified MHC/competitive/fluorescence; filed as Kd, often an IC50 or EC50 that approximates it; ≥ and ≤ were set here for values at or beyond the usual limits of such assays; conditions: source organism: Rickettsia sibirica 246
[14] = source organism: Dengue virus 4 Philippines/H241/1956
[15] = source organism: Orthohantavirus andesense
[16] = source organism: Dengue virus 1 Singapore/S275/1990
[17] = source organism: Dengue virus 3 Martinique/1243/1999
[18] = source organism: Dengue virus 3 China/80-2/1980
[19] = source organism: Dengue virus 1 Brazil/97-11/1997

In the case of NTSMAMTCIA, the Kd (HLA-B*57:01 [1]; [14]) is reported as 11.7 µM.
With EVLKAMSLY the Kd (HLA-A*02:01 [2]) was ≥ 20 µM, the Kd (HLA-B*39:01) was ≥ 20 µM and the Kd (HLA-B*27:03) was ≥ 20 µM. For the same sequence, the Kd (HLA-B*51:01) was ≥ 20 µM, the Kd (HLA-B*46:01) was ≥ 20 µM and the Kd (HLA-B*57:01 [3]) was ≥ 20 µM. For the same sequence, the Kd (HLA-A*03:01; [15]) was ≥ 20 µM, the Kd (HLA-A*26:01 [4]) was 0.0039 µM and the Kd (HLA-A*02:03 [5]; [15]) was ≥ 20 µM. The Kd (HLA-A*02:12; [15]) was ≥ 20 µM, the Kd (HLA-A*24:03 [6]) was ≥ 20 µM and the Kd (HLA-A*23:01) was ≥ 20 µM. The Kd (HLA-A*02:19; [15]) was ≥ 20 µM, the Kd (HLA-A*02:11; [15]) was ≥ 20 µM and the Kd (HLA-A*68:02 [7]) was ≥ 20 µM.
LMLVAHYAI showed a Kd (HLA-A*02:01 [8]; [16]) of 0.00646 µM, a Kd (HLA-A*02:17; [16]) of 0.0158 µM and a Kd (HLA-A*32:01) of 0.00557 µM.
QVSRPMFLY was tested, and the Kd (HLA-A*01:01) was ≥ 20 µM.
YQGKTVWFV showed a Kd (HLA-A*02:06; [14]) of 0.0123 µM, a Kd (HLA-A*02:01 [8]; [14]) of 0.00987 µM and a Kd (HLA-A*02:17; [14]) of 0.201 µM.
Work on VMLLVLCAV yielded a Kd (HLA-A*02:06; [17]) of 0.0124 µM, a Kd (HLA-A*02:03 [9]; [17]) of 0.775 µM and a Kd (HLA-A*02:01 [8]; [18]) of 0.0147 µM. For the same sequence, the Kd (HLA-A*02:17; [18]) was ≥ 28.7 µM.
DWMDRIEEF was tested, and the Kd (HLA-B*18:01) was ≥ 20 µM, the Kd (HLA-A*26:01 [10]) was ≥ 20 µM and the Kd (HLA-A*02:01 [2]) was ≥ 20 µM. The Kd (HLA-B*39:01) was ≥ 20 µM, the Kd (HLA-B*27:03) was ≥ 20 µM and the Kd (HLA-A*24:03 [11]) was 0.155 µM. The Kd (HLA-B*51:01) was ≥ 20 µM, the Kd (HLA-B*46:01) was ≥ 20 µM and the Kd (HLA-A*69:01) was ≥ 20 µM. For the same sequence, the Kd (HLA-B*57:01 [3]) was ≥ 20 µM, the Kd (HLA-A*03:01; source organism: Maporal virus) was ≥ 20 µM and the Kd (HLA-A*02:03 [5]; source organism: Maporal virus) was ≥ 20 µM. The Kd (HLA-A*02:16) was ≥ 20 µM, the Kd (HLA-A*02:12; source organism: Maporal virus) was ≥ 20 µM and the Kd (HLA-A*02:19; source organism: Maporal virus) was ≥ 20 µM. The Kd (HLA-A*29:02) was ≥ 20 µM and the Kd (HLA-A*02:11; source organism: Maporal virus) was ≥ 20 µM.
In the case of GTSHNILVEV, the Kd (HLA-B*57:01 [1]; [19]) is reported as 0.758 µM and the Kd (HLA-A*68:02 [12]) is reported as 0.015 µM.
LLMLLPTALA was tested, and the Kd (HLA-A*02:03 [9]; [19]) was 0.0499 µM, the Kd (HLA-A*02:01 [8]; [16]) was 0.128 µM and the Kd (HLA-A*02:17; [16]) was 5.21 µM.
For FIHFDHVPI, the Kd (HLA-A*68:02 [13]) was 0.0247 µM.
